23 molecules from article PMC10786891, “Massively parallel profiling of RNA-targeting CRISPR-Cas13d” can be followed below.

The labels stand for the following.
B1: target 2 MT 5'PFS GUG 3'PFS UCC (mixed)
RNA 1: CACCCGUGCAAAAUUGCAGGGGUCUAAAACCUUCUCCAAAUUGUUUCAUCCU
RNA 2: GGGAAUGGAUCCACAUCUACGAAUUCGUGAGGAUGAAACAAUUUGGAGAAGUCCAGAUCGGAAGAGCACACGU
B2: target 2 MT 5'PFS AAC 3'PFS AAA (mixed)
RNA 1: CACCCGUGCAAAAUUGCAGGGGUCUAAAACCUUCUCCAAAUUGUUUCAUCCU
RNA 2: GGGAAUGGAUCCACAUCUACGAAUUCAACAGGAUGAAACAAUUUGGAGAAGAAAAGAUCGGAAGAGCACACGU
B3: target 2 MT 5'PFS ACA 3'PFS UAA (mixed)
RNA 1: CACCCGUGCAAAAUUGCAGGGGUCUAAAACCUUCUCCAAAUUGUUUCAUCCU
RNA 2: GGGAAUGGAUCCACAUCUACGAAUUCACAAGGAUGAAACAAUUUGGAGAAGUAAAGAUCGGAAGAGCACACGU
B4: target 2 MT 5'PFS ACA 3'PFS UAC (mixed)
RNA 1: CACCCGUGCAAAAUUGCAGGGGUCUAAAACCUUCUCCAAAUUGUUUCAUCCU
RNA 2: GGGAAUGGAUCCACAUCUACGAAUUCACAAGGAUGAAACAAUUUGGAGAAGUACAGAUCGGAAGAGCACACGU
B5: target 2 MT 5'PFS GUG 3'PFS UCG (mixed)
RNA 1: CACCCGUGCAAAAUUGCAGGGGUCUAAAACCUUCUCCAAAUUGUUUCAUCCU
RNA 2: GGGAAUGGAUCCACAUCUACGAAUUCGUGAGGAUGAAACAAUUUGGAGAAGUCGAGAUCGGAAGAGCACACGU
B6: target 2 MT 5'PFS CGC 3'PFS UUG (mixed)
RNA 1: CACCCGUGCAAAAUUGCAGGGGUCUAAAACCUUCUCCAAAUUGUUUCAUCCU
RNA 2: GGGAAUGGAUCCACAUCUACGAAUUCCGCAGGAUGAAACAAUUUGGAGAAGUUGAGAUCGGAAGAGCACACGU
B7: target 2 MT 5'PFS ACA 3'PFS UAU (mixed)
RNA 1: CACCCGUGCAAAAUUGCAGGGGUCUAAAACCUUCUCCAAAUUGUUUCAUCCU
RNA 2: GGGAAUGGAUCCACAUCUACGAAUUCACAAGGAUGAAACAAUUUGGAGAAGUAUAGAUCGGAAGAGCACACGU
B8: target 2 MT 5'PFS UAC 3'PFS UGC (mixed)
RNA 1: CACCCGUGCAAAAUUGCAGGGGUCUAAAACCUUCUCCAAAUUGUUUCAUCCU
RNA 2: GGGAAUGGAUCCACAUCUACGAAUUCUACAGGAUGAAACAAUUUGGAGAAGUGCAGAUCGGAAGAGCACACGU
B9: target 2 MT 5'PFS GUU 3'PFS ACU (mixed)
RNA 1: CACCCGUGCAAAAUUGCAGGGGUCUAAAACCUUCUCCAAAUUGUUUCAUCCU
RNA 2: GGGAAUGGAUCCACAUCUACGAAUUCGUUAGGAUGAAACAAUUUGGAGAAGACUAGAUCGGAAGAGCACACGU
B10: target 2 MT 5'PFS AUC 3'PFS CUU (mixed)
RNA 1: CACCCGUGCAAAAUUGCAGGGGUCUAAAACCUUCUCCAAAUUGUUUCAUCCU
RNA 2: GGGAAUGGAUCCACAUCUACGAAUUCAUCAGGAUGAAACAAUUUGGAGAAGCUUAGAUCGGAAGAGCACACGU
B11: target 2 MT 5'PFS AUC 3'PFS CUC (mixed)
RNA 1: CACCCGUGCAAAAUUGCAGGGGUCUAAAACCUUCUCCAAAUUGUUUCAUCCU
RNA 2: GGGAAUGGAUCCACAUCUACGAAUUCAUCAGGAUGAAACAAUUUGGAGAAGCUCAGAUCGGAAGAGCACACGU
B12: target 2 MT 5'PFS CGC 3'PFS UUA (mixed)
RNA 1: CACCCGUGCAAAAUUGCAGGGGUCUAAAACCUUCUCCAAAUUGUUUCAUCCU
RNA 2: GGGAAUGGAUCCACAUCUACGAAUUCCGCAGGAUGAAACAAUUUGGAGAAGUUAAGAUCGGAAGAGCACACGU
B13: target 2 MT 5'PFS AGA 3'PFS CAC (mixed)
RNA 1: CACCCGUGCAAAAUUGCAGGGGUCUAAAACCUUCUCCAAAUUGUUUCAUCCU
RNA 2: GGGAAUGGAUCCACAUCUACGAAUUCAGAAGGAUGAAACAAUUUGGAGAAGCACAGAUCGGAAGAGCACACGU
B14: target 2 MT 5'PFS AUC 3'PFS CUA (mixed)
RNA 1: CACCCGUGCAAAAUUGCAGGGGUCUAAAACCUUCUCCAAAUUGUUUCAUCCU
RNA 2: GGGAAUGGAUCCACAUCUACGAAUUCAUCAGGAUGAAACAAUUUGGAGAAGCUAAGAUCGGAAGAGCACACGU
B15: target 2 MT 5'PFS AGC 3'PFS ACG (mixed)
RNA 1: CACCCGUGCAAAAUUGCAGGGGUCUAAAACCUUCUCCAAAUUGUUUCAUCCU
RNA 2: GGGAAUGGAUCCACAUCUACGAAUUCAGCAGGAUGAAACAAUUUGGAGAAGACGAGAUCGGAAGAGCACACGU
B16: target 2 MT 5'PFS AGA 3'PFS CAG (mixed)
RNA 1: CACCCGUGCAAAAUUGCAGGGGUCUAAAACCUUCUCCAAAUUGUUUCAUCCU
RNA 2: GGGAAUGGAUCCACAUCUACGAAUUCAGAAGGAUGAAACAAUUUGGAGAAGCAGAGAUCGGAAGAGCACACGU
B17: target 2 MT 5'PFS AGU 3'PFS CAC (mixed)
RNA 1: CACCCGUGCAAAAUUGCAGGGGUCUAAAACCUUCUCCAAAUUGUUUCAUCCU
RNA 2: GGGAAUGGAUCCACAUCUACGAAUUCAGUAGGAUGAAACAAUUUGGAGAAGCACAGAUCGGAAGAGCACACGU
B18: target 2 MT 5'PFS AGA 3'PFS CAA (mixed)
RNA 1: CACCCGUGCAAAAUUGCAGGGGUCUAAAACCUUCUCCAAAUUGUUUCAUCCU
RNA 2: GGGAAUGGAUCCACAUCUACGAAUUCAGAAGGAUGAAACAAUUUGGAGAAGCAAAGAUCGGAAGAGCACACGU
B19: target 2 MT 5'PFS AGU 3'PFS CAG (mixed)
RNA 1: CACCCGUGCAAAAUUGCAGGGGUCUAAAACCUUCUCCAAAUUGUUUCAUCCU
RNA 2: GGGAAUGGAUCCACAUCUACGAAUUCAGUAGGAUGAAACAAUUUGGAGAAGCAGAGAUCGGAAGAGCACACGU
B20: target 2 MT 5'PFS AGC 3'PFS ACA (mixed)
RNA 1: CACCCGUGCAAAAUUGCAGGGGUCUAAAACCUUCUCCAAAUUGUUUCAUCCU
RNA 2: GGGAAUGGAUCCACAUCUACGAAUUCAGCAGGAUGAAACAAUUUGGAGAAGACAAGAUCGGAAGAGCACACGU
B21: target 2 MT 5'PFS UUC 3'PFS UAC (mixed)
RNA 1: CACCCGUGCAAAAUUGCAGGGGUCUAAAACCUUCUCCAAAUUGUUUCAUCCU
RNA 2: GGGAAUGGAUCCACAUCUACGAAUUCUUCAGGAUGAAACAAUUUGGAGAAGUACAGAUCGGAAGAGCACACGU
B22: target 1 A18C,U19A (mixed)
RNA 1: CACCCGUGCAAAAAUGCAGGGGUCUAAAACUGAGCGGAUAACCUCUCUAUGG
RNA 2: GGGAAUGGAUCCACAUCUACGAAUUCGUACCAACGAGAGGUUAUCCGCUCACCGAGAUCGGAAGAGCACACGU
B23: target 1 insC 3' of 22,insA 3' of 6 (mixed)
RNA 1: CACCCGUGCAAAAAUGCAGGGGUCUAAAACUGAGCGGAUAACCUCUCUAUGG
RNA 2: GGGAAUGGAUCCACAUCUACGAAUUCGUACCCAUAGAGAGGUUAUCCAGCUCACCGAGAUCGGAAGAGCACACGU

In general, Kd refers to the free concentration of one partner at which half of the binding sites on the other are occupied at equilibrium, for simple one-to-one binding. A higher Kd goes with lower affinity.

The target of this data set is T1, EsCas13d, nuclease-dead (Eubacterium siraeum, UniProt B0MS50, R295A;H300A;R849A;H854A).
T1 sequence: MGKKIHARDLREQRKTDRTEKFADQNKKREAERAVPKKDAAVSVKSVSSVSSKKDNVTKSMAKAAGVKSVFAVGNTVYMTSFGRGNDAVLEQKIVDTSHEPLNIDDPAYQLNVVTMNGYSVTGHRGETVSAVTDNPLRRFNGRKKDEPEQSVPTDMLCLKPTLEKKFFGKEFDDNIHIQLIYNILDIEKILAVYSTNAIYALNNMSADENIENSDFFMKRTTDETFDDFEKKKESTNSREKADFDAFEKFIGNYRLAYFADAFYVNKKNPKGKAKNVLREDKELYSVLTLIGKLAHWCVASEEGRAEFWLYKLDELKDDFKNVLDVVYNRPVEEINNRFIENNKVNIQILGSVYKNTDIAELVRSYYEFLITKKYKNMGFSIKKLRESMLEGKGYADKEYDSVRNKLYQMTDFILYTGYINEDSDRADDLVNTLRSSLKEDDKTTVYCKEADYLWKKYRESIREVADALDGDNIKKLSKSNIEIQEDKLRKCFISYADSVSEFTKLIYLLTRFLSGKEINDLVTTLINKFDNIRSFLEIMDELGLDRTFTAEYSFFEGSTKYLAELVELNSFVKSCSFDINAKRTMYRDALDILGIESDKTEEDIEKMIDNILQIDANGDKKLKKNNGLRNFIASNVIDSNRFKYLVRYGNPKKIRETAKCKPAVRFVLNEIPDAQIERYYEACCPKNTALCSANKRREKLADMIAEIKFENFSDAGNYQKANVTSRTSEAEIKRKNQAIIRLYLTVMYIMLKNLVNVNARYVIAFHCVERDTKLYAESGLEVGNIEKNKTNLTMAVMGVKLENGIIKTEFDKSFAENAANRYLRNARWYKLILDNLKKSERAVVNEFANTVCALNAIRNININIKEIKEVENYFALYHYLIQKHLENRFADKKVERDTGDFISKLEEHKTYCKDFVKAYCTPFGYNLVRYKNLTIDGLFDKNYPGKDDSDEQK
As to the kind of experiment: crRNA (strand 1, pre-loaded); Mg2+; 40 mM Tris-HCl pH 7.5, 150 mM NaCl, 6 mM MgCl2, 1 mM DTT, 0.1% Tween-20, 0.2 mg/ml BSA; 25 C; 10 min per concentration, then washed. As to conditions: tags: His6-TwinStrep-SUMO cleaved; N-terminal SNAP kept (SNAP-Surface 488); label: 3' end held by stalled T7 RNA polymerase.
The molecule B1 displayed a dissociation constant (Kd) of 42 ± 6 nM.

In turn, B2 showed a Kd of 10 ± 5 nM. In turn, B3 displayed a dissociation constant Kd of 4.3 ± 1.4 nM. In the case of B4 it was roughly 18 nM; in that of B5, 18.2 ± 2.2 nM. Consider B6, for which the Kd is 8.1 ± 1.4 nM. B7 came in with a Kd of 5.1 ± 1.1 nM. B8 yielded a Kd of 6 ± 0.8 nM. The molecule B9 registered a Kd of 15.5 ± 1 nM. The molecule B10 registered a Kd of roughly 90 nM. With B11, binding was characterised by a dissociation constant (Kd) of 66 ± 25 nM. As for B12, the Kd came to 11.1 ± 2.5 nM. This Kd lies about 5.9-fold lower than the previous one. B13 displayed a Kd of 7.4 ± 1.6 nM. Consider B14, for which the equilibrium dissociation constant (Kd) is roughly 90 nM. B15 registered a dissociation constant Kd of 7.1 ± 0.9 nM.

In the case of B16, the Kd was 5.7 ± 0.8 nM. In turn, B17 came in with a Kd of 15 ± 5 nM. This Kd lies about 2.6-fold higher than the previous one. On to B18, for which the affinity, expressed as Kd, was 3.5 ± 0.8 nM. This Kd is about 4.3-fold lower than that of the molecule before. In the case of B19 it was 14.2 ± 3.1 nM. Molecule B20 returned a dissociation constant Kd of 7.9 ± 3.2 nM. B21 returned a dissociation constant Kd of 17 ± 6 nM. In the case of B22 it was 49 ± 4 nM; in that of B23, 12.9 ± 0.9 nM.
